{"source": "patent US20200062827A1", "key": {"[1]": {"target": "therapeutic human IgG1 (Bristol-Myers Squibb) (human)", "assay": "affinity precipitation: 5 mM C12-Z33 + 20 µM IgG1, 0.6 M Na2SO4, centrifugation, A280 of supernatant"}, "[2]": {"target": "therapeutic human IgG1 (Bristol-Myers Squibb) (human)", "assay": "ITC, 15 C, PBS pH 7.4, reported per ligand"}, "[3]": {"target": "therapeutic human IgG1 (Bristol-Myers Squibb) (human)", "assay": "ITC, 15 C, PBS pH 7.4, reported per IgG1"}}, "data": [{"substance": "C12-Z33 immuno-amphiphile (peptide)", "values": [{"measurement": "percent IgG1 removed from the supernatant", "setting": "[1]", "value": "> 60", "unit": "%"}]}, {"substance": "Z33 peptide", "values": [{"measurement": "-TΔS° (kcal · mol^-1)", "setting": "[2]", "value": 13.6}, {"measurement": "Kd", "setting": "[2]", "value": 60, "unit": "nM"}, {"measurement": "ΔG° (kcal · mol^-1)", "setting": "[2]", "value": -9.5}, {"measurement": "ΔH° (kcal · mol^-1)", "setting": "[2]", "value": -23.1}, {"measurement": "-TΔS° (kcal · mol^-1)", "setting": "[3]", "value": 43.4}, {"measurement": "ΔG° (kcal · mol^-1)", "setting": "[3]", "value": -10}, {"measurement": "ΔH° (kcal · mol^-1)", "setting": "[3]", "value": -53.4}]}]}
